Reference: US11505576B2, “Polypeptides based on a scaffold” (AFFIBODY AB, priority 2018, dated 2022)

How the values were obtained:
[1] = Circular dichroism spectroscopy analysis (CD spectra, variable temperature measurement, refolding); format: physicochemical
Experimental: The respective Y variant was diluted to 0.5 mg/ml in PBS. A CD spectrum at 250-195 nm was obtained at 20° C. In addition, a variable temperature measurement (VTM) was performed to determine the melting temperature (Tm). In the VTM, absorbance was measured at 221 nm while the temperature was raised from 20° C. to 90° C. with a temperature gradient of 5° C./min. A new CD spectrum was obtained at 20° C. after the heating procedure, in order to study the refolding ability of the Y variants. The CD measurements were performed on a Jasco J-810 spectropolarimeter (Jasco Scandinavia AB) using a cell with an optical path length of 1 mm.
(§1) Produced Y variants were subjected to CD and SPR analyses according to the methods described in Example 1.
(§2) The Y variants were cloned, produced and characterized according to the general methods described in Example 1. Produced Y variants with point mutations and/or N-terminal or C-terminal extensions were subjected to CD and SPR analyses as described in Example 1.
(§3) Produced Y variants were subjected to CD and SPR analyses according to the methods described in Example 1. In addition, CD spectra of selected IL-6 binding variants were also recorded at 60, 70, 80 and 90° C.
(§4) The Y variants were cloned, produced and characterized according to the general methods described in Example 1. Produced Y variants with point mutations were subjected to CD and SPR analyses as described in Example 1. In addition, CD spectra of the IL-6 binding variants were also recorded at 60, 70, 80 and 90° C.

[2] = target: T1, insulin (Homo sapiens, UniProt P01308); assay: Kinetic analysis using surface plasmon resonance (Biacore T200), immobilized insulin; format: binding; conditions: MGSSHHHHHHGSS-[Y#####]
T1 construct: purchased Roche 1376497
T1 sequence (P01308 25-54 limits assumed): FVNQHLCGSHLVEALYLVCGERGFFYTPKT
T1 sequence (P01308 90-110 limits assumed): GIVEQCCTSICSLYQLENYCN
Experimental: Kinetic constants (ka and kd) and affinities (KD) were determined for His6-tagged Y variants using a Biacore T200 instrument (GE Healthcare). Target proteins C4, IL-6 and insulin, respectively, were immobilized in separate flow cells on the carboxylated dextran layer of different CM5 chip surfaces (GE Healthcare). Immobilization was performed using amine coupling chemistry according to the manufacturer's protocol and PBS pH 7.4 supplemented with 0.1 Tween20 (PBST 0.1%) as running buffer. The ligand immobilization levels on the surfaces were 3280-8830 RU for C4, 495-1184 RU for IL-6, and 270-282 RU for insulin. One flow cell surface on each chip was activated and deactivated for use as blank during analyte injections. In the kinetic experiment, PBST 0.1% was used as running buffer at a flow rate of 30 μl/min. The analytes, i.e. Y variants, were each diluted in PBST 0.1 buffer at concentrations of 1000, 500, 100, 50 and 10 nM and injected for 5 min, followed by dissociation in running buffer for 3 min. After dissociation, the surfaces were regenerated with one injection of 30 μl 10 mM HCl. Kinetic constants were calculated from the sensorgrams using the Langmuir 1:1 model of Biacore T200 Evaluation software 2.0 (GE Healthcare).
as §1, §2, §3, §4

[3] = Fraction of soluble product on expression in E. coli, estimated from SDS-PAGE; format: physicochemical; conditions: for Est soluble fraction: Table 9, mutation study 5
Experimental: E. coli T7E2 cells were transformed with plasmids containing the gene fragment of each respective Y variant. The resulting recombinant strains were generally cultivated in media supplemented with 50 μg/ml kanamycin at 30-37° C. in 50 ml scale using the EnPresso protocol (Enpresso GmbH). In order to induce protein expression, isopropyl-β-D-1-thiogalactopyranoside (IPTG) was added to a final concentration of 0.5 mM at an optical density at 600 nm (OD600) of approximately 10. After induction, the cultures were incubated for 16 h. The cells were harvested by centrifugation. Alternatively, the culture was performed at 37° C. in 980 ml of TSB-YE medium (tryptic soy broth 30 g/l supplemented with yeast extract 5 g/l) supplemented with 50 μg/ml kanamycin, and protein expression induced with 0.2 mM IPTG at OD600=2, followed by incubation for 5 h before harvesting of the cells by centrifugation. The total yield as well as the fraction of soluble and insoluble product of the respective Y variant was estimated based on SDS-PAGE analysis.

[4] = Table 3, mutation study 1, MGSSHHHHHHGSS-[Y#####]
[5] = Table 4, mutation study 2, MGSSHHHHHHGSS-[Y#####]
[6] = Table 8, mutation study 4, MGSSHHHHHHGSS-[Y#####]
[7] = Table 9, mutation study 5, MGSSHHHHHHGSS-[Y#####]-A

Q: With “Y00275: insulin binding Y variant, Y00032 with E39Q, SEQ ID NO:122 (LAEAKEAAIAELDSKGVGAYQKSFIELAKSVEHVELLKQAILADLP; Engineered insulin binding Y variant)” as the substance, how does the Tm [1, 4] read?
A: The Tm was 54 °C.

Q: And the Kd ([2]; Table 3, mutation study 1)?
A: Its Kd is 59 nM.

Q: Which results are given for “Y00276: insulin binding Y variant, Y00032 with A43K, SEQ ID NO:123 (LAEAKEAAIAELDSKGVGAYQKSFIELAKSVEHVELLKEAILKDLP; Engineered insulin binding Y variant)”?
A: Tm [1, 4]: 50 °C; Kd ([2]; Table 3, mutation study 1): 76 nM

Q: With “Y00292: insulin binding Y variant, Y00032 with S23K + E35Q + E39Q, SEQ ID NO:124 (LAEAKEAAIAELDSKGVGAYQKKFIELAKSVEHVQLLKQAILADLP; Engineered insulin binding Y variant)” as the substance, how does the Tm [1, 5] read?
A: Its Tm is 57 °C.

Q: What about the Kd ([2]; Table 4, mutation study 2) of the same substance?
A: Its Kd is 450 nM.

Q: What does the source list for “Y00293: insulin binding Y variant, Y00270 with E35Q + E39Q, SEQ ID NO:125 (LAEAKEAAIAELDSKGVGAYQIKFIELAKSVEHVQLLKQAILADLP; Engineered insulin binding Y variant)”?
A: Tm [1, 5]: 56 °C; Kd ([2]; Table 4, mutation study 2): 490 nM

Q: Which Tm [1, 5] does the source give for “Y00294: insulin binding Y variant, Y00270 with E35Q + A43K, SEQ ID NO:126 (LAEAKEAAIAELDSKGVGAYQIKFIELAKSVEHVQLLKEAILKDLP; Engineered insulin binding Y variant)” here?
A: Its Tm is 54 °C.

Q: And the Kd ([2]; Table 4, mutation study 2)?
A: The Kd was 490 nM.

Q: Which Tm [1, 5] does the source give for “Y00295: insulin binding Y variant, Y00270 with E35Q + E39Q + A43K, SEQ ID NO:127 (LAEAKEAAIAELDSKGVGAYQIKFIELAKSVEHVQLLKQAILKDLP; Engineered insulin binding Y variant)” here?
A: The Tm was 52 °C.

Q: What about the Kd ([2]; Table 4, mutation study 2) of the same substance?
A: Its Kd is 580 nM.

Q: For “Y00356: insulin binding Y variant, SEQ ID NO:140, template of mutation study 4 (LAEAKEAAIAELDSKGVGAKYIKMIQHAHYVEVVQWLKQAILAHLP; Engineered insulin binding Y variant)”, which Tm [1, 6] is on record?
A: Its Tm is 57 °C.

Q: And the Estimated soluble fraction [3, 6]?
A: Its Estimated soluble fraction is 43%.

Q: What does the source list for “Y02310: C4 binding Y variant from Ylib002Naive.I, SEQ ID NO:36 (LAEAKEAAIAELDSKGVGADLIKKIQYADTVEGVQFWKQEILAWLPA; Engineered C4 binding Y variant)”?
A: Tm ([1]; Table 7, MGSSHHHHHHGSS-[Y#####]-A): 56 °C; Estimated soluble fraction ([3]; Table 7, Ylib002Naive.I selection, MGSSHHHHHHGSS-[Y#####]-A): 100%

Q: Which results are given for “Y02674: insulin binding Y variant, Y00356 with K15Y, SEQ ID NO:146 (LAEAKEAAIAELDSYGVGAKYIKMIQHAHYVEVVQWLKQAILAHLP; Engineered insulin binding Y variant)”?
A: Tm [1, 6]: 55 °C; Estimated soluble fraction [3, 6]: 40%

Q: Which Tm [1, 6] does the source give for “Y02676: insulin binding Y variant, Y00356 with Q26E, SEQ ID NO:147 (LAEAKEAAIAELDSKGVGAKYIKMIEHAHYVEVVQWLKQAILAHLP; Engineered insulin binding Y variant)” here?
A: The Tm was 56 °C.

Q: What about the Estimated soluble fraction [3, 6] of the same substance?
A: Its Estimated soluble fraction is 55%.

Q: With “Y02683: insulin binding Y variant, Y00356 with I9L, SEQ ID NO:148 (LAEAKEAALAELDSKGVGAKYIKMIQHAHYVEVVQWLKQAILAHLP; Engineered insulin binding Y variant)” as the substance, how does the Estimated soluble fraction [3, 6] read?
A: The Estimated soluble fraction was 92%.

Q: What does the source list for “Y02685: C4 binding Y variant, Y00792 with I9L, SEQ ID NO:40 (LAEAKEAALAELDSKGVGADLIKKIQQASSVEGVQFWKQEILAQLPA; Engineered C4 binding Y variant)”?
A: Tm [1, 7]: 53 °C; Est soluble fraction ([3]; MGSSHHHHHHGSS-[Y#####]-A): 100%

Q: For “Y02686: C4 binding Y variant, Y00792 with K15Y, SEQ ID NO:41 (LAEAKEAAIAELDSYGVGADLIKKIQQASSVEGVQFWKQEILAQLPA; Engineered C4 binding Y variant)”, which Tm [1, 7] is on record?
A: The Tm was 59 °C.

Q: What about the Est soluble fraction ([3]; MGSSHHHHHHGSS-[Y#####]-A) of the same substance?
A: The Est soluble fraction was 100%.

Q: Which Tm [1, 7] does the source give for “Y02687: C4 binding Y variant, Y00792 with Q26E, SEQ ID NO:42 (LAEAKEAAIAELDSKGVGADLIKKIEQASSVEGVQFWKQEILAQLPA; Engineered C4 binding Y variant)” here?
A: Its Tm is 57 °C.

Q: What about the Est soluble fraction ([3]; MGSSHHHHHHGSS-[Y#####]-A) of the same substance?
A: The Est soluble fraction was 100%.
